Results taken from article PMC8873925.

Tests used:
Experiment in all cases: ITC
[1] = target: T1, CSTF2 (CstF-64) RRM wild-type (Homo sapiens, UniProt P33240 1-107)
T1 sequence: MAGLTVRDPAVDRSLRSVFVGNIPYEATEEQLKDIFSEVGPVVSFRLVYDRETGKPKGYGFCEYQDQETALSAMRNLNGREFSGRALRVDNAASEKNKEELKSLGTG

CSTF2 RRM E26A = target: T2, CSTF2 RRM E26A (Homo sapiens, UniProt P33240 1-107, E26A)
T2 sequence: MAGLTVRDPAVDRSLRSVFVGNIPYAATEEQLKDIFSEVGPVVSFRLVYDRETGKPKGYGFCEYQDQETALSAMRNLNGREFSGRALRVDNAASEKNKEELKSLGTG

CSTF2 RRM D90I = target: T3, CSTF2 RRM D90I (Homo sapiens, UniProt P33240 1-107, D90I)
T3 sequence: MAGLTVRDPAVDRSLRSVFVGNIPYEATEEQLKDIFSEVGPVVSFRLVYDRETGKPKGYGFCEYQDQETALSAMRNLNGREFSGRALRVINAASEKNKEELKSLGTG

CSTF2 RRM D50A = target: T4, CSTF2 RRM D50A (Homo sapiens, UniProt P33240 1-107, D50A)
T4 sequence: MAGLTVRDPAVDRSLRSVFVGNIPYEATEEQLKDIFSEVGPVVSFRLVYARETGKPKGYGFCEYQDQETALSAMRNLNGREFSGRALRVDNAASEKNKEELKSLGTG

CSTF2 RRM K96E = target: T5, CSTF2 RRM K96E (Homo sapiens, UniProt P33240 1-107, K96E)
T5 sequence: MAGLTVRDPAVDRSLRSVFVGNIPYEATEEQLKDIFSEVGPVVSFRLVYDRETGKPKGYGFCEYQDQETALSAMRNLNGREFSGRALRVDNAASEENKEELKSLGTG

CSTF2 RRM D90K = target: T6, CSTF2 RRM D90K (Homo sapiens, UniProt P33240 1-107, D90K)
T6 sequence: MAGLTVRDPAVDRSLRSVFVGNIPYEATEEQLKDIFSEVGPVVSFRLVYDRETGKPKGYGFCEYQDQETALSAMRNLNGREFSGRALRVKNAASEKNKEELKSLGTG

CSTF2 RRM K98E = target: T7, CSTF2 RRM K98E (Homo sapiens, UniProt P33240 1-107, K98E)
T7 sequence: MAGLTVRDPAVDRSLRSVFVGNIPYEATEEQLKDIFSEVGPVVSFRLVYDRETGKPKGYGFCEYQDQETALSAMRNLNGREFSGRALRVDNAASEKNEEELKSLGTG

CSTF2 RRM F45A = target: T8, CSTF2 RRM F45A (Homo sapiens, UniProt P33240 1-107, F45A)
T8 sequence: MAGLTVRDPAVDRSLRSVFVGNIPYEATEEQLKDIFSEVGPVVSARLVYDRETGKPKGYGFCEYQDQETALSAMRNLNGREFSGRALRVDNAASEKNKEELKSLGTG

CSTF2 RRM A93E = target: T9, CSTF2 RRM A93E (Homo sapiens, UniProt P33240 1-107, A93E)
T9 sequence: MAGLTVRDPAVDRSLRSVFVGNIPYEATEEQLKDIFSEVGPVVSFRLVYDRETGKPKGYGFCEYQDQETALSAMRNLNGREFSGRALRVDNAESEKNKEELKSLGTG

## AUUUUAUGUUUCAGGU (ssRNA) [SVL RNA]
[1]
  Kd: 1520 ± 170 nM
CSTF2 RRM E26A
  Kd: 520 ± 10 nM
CSTF2 RRM D90I
  Kd: 1260 ± 330 nM
CSTF2 RRM D50A
  Kd: 698 ± 60 nM
CSTF2 RRM K96E
  Kd: 38700 ± 4200 nM
CSTF2 RRM D90K
  Kd: 608 ± 10 nM
CSTF2 RRM K98E
  Kd: 8700 ± 110 nM
CSTF2 RRM F45A
  Kd: 1010 ± 50 nM
CSTF2 RRM A93E
  Kd: 3880 ± 770 nM
